Measured values from patent publication US20220348651A1 (Novartis, published 2022).

Legend:
[1] = biological target: T1, Human ENTPD1 (NP_001767) expressed on NIH/3T3 cells (human, UniProt P49961 1-510); assay: flow cytometry, NIH/3T3-ENTPD1 cells
T1 construct: also called NIH/3T3-ENTPD1; CD39
T1 sequence: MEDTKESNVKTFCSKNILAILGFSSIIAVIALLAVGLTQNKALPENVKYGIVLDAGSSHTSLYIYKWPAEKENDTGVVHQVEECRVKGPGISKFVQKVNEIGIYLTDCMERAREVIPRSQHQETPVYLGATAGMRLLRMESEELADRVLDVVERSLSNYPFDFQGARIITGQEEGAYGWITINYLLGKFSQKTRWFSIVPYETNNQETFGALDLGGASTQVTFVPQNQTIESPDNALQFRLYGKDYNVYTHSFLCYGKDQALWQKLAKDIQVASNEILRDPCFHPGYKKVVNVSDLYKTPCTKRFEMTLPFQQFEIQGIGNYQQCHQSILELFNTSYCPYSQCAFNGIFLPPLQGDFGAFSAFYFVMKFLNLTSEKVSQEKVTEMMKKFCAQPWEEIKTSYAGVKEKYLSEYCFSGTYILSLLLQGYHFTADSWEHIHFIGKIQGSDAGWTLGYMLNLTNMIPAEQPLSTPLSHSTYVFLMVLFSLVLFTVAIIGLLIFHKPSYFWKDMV

[2] = biological target: T2, human ENTPD2 expressed on cells (human, UniProt Q9Y5L3 1-495); assay: flow cytometry, RKO cells (endogenous ENTPD2)
T2 construct: full-length human ENTPD2 on engineered cells; also called NIH3T3 humanENTPD2; NIH/3T3-hENTPD2
T2 sequence: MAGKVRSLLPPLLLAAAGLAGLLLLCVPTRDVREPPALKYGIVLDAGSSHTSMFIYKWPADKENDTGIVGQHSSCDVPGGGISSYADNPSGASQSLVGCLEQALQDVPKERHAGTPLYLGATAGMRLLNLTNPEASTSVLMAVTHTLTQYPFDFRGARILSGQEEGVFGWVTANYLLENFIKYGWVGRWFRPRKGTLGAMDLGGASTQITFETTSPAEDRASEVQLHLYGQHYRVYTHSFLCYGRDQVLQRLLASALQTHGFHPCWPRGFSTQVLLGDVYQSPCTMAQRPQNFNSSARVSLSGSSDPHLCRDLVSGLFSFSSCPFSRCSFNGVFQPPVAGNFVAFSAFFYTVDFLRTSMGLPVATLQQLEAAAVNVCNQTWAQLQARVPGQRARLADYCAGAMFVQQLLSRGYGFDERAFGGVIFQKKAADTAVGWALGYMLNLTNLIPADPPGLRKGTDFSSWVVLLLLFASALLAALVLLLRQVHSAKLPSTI
Protocol: FACS screening: Specific binding of candidate antibodies to endogenously expressed ENTPD2 was assessed by flow cytometry. […] Geometric mean fluorescence intensity was calculated on live single cells using FlowJo software.

ENTPD3 of H520 cells = biological target: T3, ENTPD3 of H520 cells (UniProt O75355 1-529, limits assumed); assay: flow cytometry, H520 cells
T3 construct: whole, on cells
T3 sequence (looked up): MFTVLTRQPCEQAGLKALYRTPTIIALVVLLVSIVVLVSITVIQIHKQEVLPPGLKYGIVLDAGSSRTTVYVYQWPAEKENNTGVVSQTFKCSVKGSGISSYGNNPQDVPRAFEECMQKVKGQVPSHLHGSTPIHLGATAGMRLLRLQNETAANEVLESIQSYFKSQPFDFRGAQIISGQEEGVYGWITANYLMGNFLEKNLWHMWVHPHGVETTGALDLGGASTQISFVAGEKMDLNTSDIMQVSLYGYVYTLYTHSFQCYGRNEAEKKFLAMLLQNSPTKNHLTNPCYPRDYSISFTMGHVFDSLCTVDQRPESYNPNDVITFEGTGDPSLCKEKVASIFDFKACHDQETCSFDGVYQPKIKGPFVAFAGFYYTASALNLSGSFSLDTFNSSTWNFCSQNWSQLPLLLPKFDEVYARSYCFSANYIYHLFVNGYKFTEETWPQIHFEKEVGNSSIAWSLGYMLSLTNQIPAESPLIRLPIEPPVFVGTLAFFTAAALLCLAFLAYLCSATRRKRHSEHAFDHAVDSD

ENTPD8 of H520 cells = biological target: T4, ENTPD8 of H520 cells (UniProt Q5MY95 1-495, limits assumed); assay: flow cytometry, H520 cells
T4 construct: whole, on cells
T4 sequence (looked up): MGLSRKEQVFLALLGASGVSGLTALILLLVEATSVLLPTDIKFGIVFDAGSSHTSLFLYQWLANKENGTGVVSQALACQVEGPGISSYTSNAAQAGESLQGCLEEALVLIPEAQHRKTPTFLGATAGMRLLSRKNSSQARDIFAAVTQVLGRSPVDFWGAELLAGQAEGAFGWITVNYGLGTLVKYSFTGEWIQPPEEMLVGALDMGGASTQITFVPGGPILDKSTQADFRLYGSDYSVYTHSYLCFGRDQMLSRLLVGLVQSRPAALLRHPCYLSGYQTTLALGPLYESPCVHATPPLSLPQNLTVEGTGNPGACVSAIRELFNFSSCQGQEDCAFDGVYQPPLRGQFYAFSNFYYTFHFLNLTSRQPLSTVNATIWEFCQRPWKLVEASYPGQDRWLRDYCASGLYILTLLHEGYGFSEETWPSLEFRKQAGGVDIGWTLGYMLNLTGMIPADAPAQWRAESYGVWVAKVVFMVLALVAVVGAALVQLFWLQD

B1: ANTI-HUMAN ENTPD2 MAB2 (antibody, human IgG1, kappa)
heavy: not shown
light: EIVLTQSPATLSASPGERITLSCSASSSVSYIHWYQQKPGQAPRLLIYSTSNLASGIPARFSGSGSGTFYTLTISSVEPEDAAVYYCHQWSSYPWTFGGGTKLEIKRTVAAPSVFIFPPSDEQLKSGTASVVCLLNNFYPREAKVQWKVDNALQSGNSQESVTEQDSKDSTYSLSSTLTLSKADYEKHKVYACEVTHQGLSSPVTKSFNRGEC
notes: humanized from mAb17; human IgG1, kappa; also called Anti-ENTPD2 mAb2
For B1, the binding result [1] was “no binding (tested: 50 nM)”, the EC50 [2] was 1.3 nM and the binding result (ENTPD3 of H520 cells) was “no binding (tested: 50 nM)”. B1: no binding (tested: 50 nM) (ENTPD8 of H520 cells).

B2: ANTI-HUMAN ENTPD2 MAB3 (antibody, human IgG1, kappa, V domains shown)
VH: QVQLVQSGAEVVKPGASVKISCKASGYTFTDYNMDWVKQAPGQRLEWIGDINPKYDISTYNQQFKGKATITVDTSASTAYMELSSLRSEDTAVYYCARRGFFLYYGINYYYFDVWGQGTLVTVSS
VL: EIVLTQSPATLSASPGERITLSCSASSSVSYIHWYQQKPGQAPRLLIYSTSNLASGIPARFSGSGSGTFYTLTISSVEPEDAAVYYCHQWSSYPWTFGGGTKLEIKR
notes: humanized from mAb17; human IgG1, kappa; also called Anti-ENTPD2 mAb3
In the case of B2, the binding result [1] is reported as “no binding (tested: 50 nM)”, the EC50 [2] is reported as 2.1 nM and the binding result (ENTPD3 of H520 cells) is reported as “no binding (tested: 50 nM)”. B2: no binding (tested: 50 nM) (ENTPD8 of H520 cells).

B3: ANTI-HUMAN ENTPD2 MAB7 (antibody, human IgG1, kappa)
heavy: not shown
light: EIVLTQSPATLSASPGEEITLSCSASSSVSYIHWYQQKPGQAPRLLIYSTSNLASGIPARFSGSGSGTFYTLTISSVEPEDAAVYYCHQWSSYPWTFGGGTKLEIKRTVAAPSVFIFPPSDEQLKSGTASVVCLLNNFYPREAKVQWKVDNALQSGNSQESVTEQDSKDSTYSLSSTLTLSKADYEKHKVYACEVTHQGLSSPVTKSFNRGEC
notes: humanized from mAb17; human IgG1, kappa; also called Anti-ENTPD2 mAb7
For B3, the binding result [1] was “no binding (tested: 50 nM)”, the EC50 [2] was 0.4 nM and the binding result (ENTPD3 of H520 cells) was “no binding (tested: 50 nM)”. B3: no binding (tested: 50 nM) (ENTPD8 of H520 cells).

B4: ANTI-HUMAN ENTPD2 MAB4 (antibody, human IgG1, kappa, V domains shown)
VH: QIQLQESGPGLVKPSQTLSLTCTVSGYSITSGYYWNWIRQHPGKGLEWIGYISYDADNNYNPSLKNRVTISRDTSKNQFSLKLSSVTAADTAVYYCAGGYYRYGLGSYRGSYYYVMDYWGQGTTVTVSS
VL: ETVLTQSPATLSVSPGERATISCKASQSVDYEGHSYMNWYQQKPGQAPRLLIYAASNLESGIPARFSGSGSGTDFTLTISSVEPEDAATYYCQQSNEDPPTFGGGTKLEIKR
notes: humanized and optimized from mAb16; human IgG1, kappa; also called Anti-ENTPD2 mAb4
In the case of B4, the binding result [1] is reported as “no binding (tested: 50 nM)”, the EC50 [2] is reported as 0.5 nM and the binding result (ENTPD3 of H520 cells) is reported as “no binding (tested: 50 nM)”. B4: no binding (tested: 50 nM) (ENTPD8 of H520 cells).

B5: ANTI-HUMAN ENTPD2 MAB6 (antibody, human IgG1, kappa, V domains shown)
VH: QVQLQESGPGLVKPSQTLSLTCTVSGYSITSGYYWNWIRQHPGKGLEWMGYISYDADNNYNPSLKNRITISRDTSKNQFSLKLSSVTAADTAVYYCAGGYYRYGLGSYSGSYYYVMDYWGQGTTVTVSS
VL: DTQMTQSPSSLSVSVGDRATITCKASQSVDYEGHSYMNWYQQKPGKAPKLLIYAASNLESGVPSRFSGSGSGTDFTLTISSVQPEDFATYYCQQSNEDPPTFGGGTKLEIKR
notes: humanized and optimized from mAb16; human IgG1, kappa; also called Anti-ENTPD2 mAb6
For B5, the binding result [1] was “no binding (tested: 50 nM)”, the EC50 [2] was 0.4 nM and the binding result (ENTPD3 of H520 cells) was “no binding (tested: 50 nM)”. B5: no binding (tested: 50 nM) (ENTPD8 of H520 cells).

B6: ANTI-HUMAN ENTPD2 MAB5 (antibody, human IgG1, kappa, V domains shown)
VH: QIQLQESGPGLVKPSQTLSLTCTVSGYSITSGYYWNWIRQHPGKGLEWIGYISYDADNNYNPSLKNRVTISRDTSKNQFSLKLSSVTAADTAVYYCAGGYYRYGLGSYRGSYYYVMDYWGQGTTVTVSS
VL: ETVLTQSPATLSVSPGERATISCKASQSVDYDGNSYMNWYQQKPGQAPRLLIYAASNLESGIPARFSGSGSGTDFTLTISSVEPEDAATYYCQQSNEDPPTFGGGTKLEIKR
notes: humanized and optimized from mAb16; human IgG1, kappa; also called Anti-ENTPD2 mAb5
For B6, the binding result [1] was “no binding (tested: 50 nM)”, the EC50 [2] was 0.4 nM and the binding result (ENTPD3 of H520 cells) was “no binding (tested: 50 nM)”. B6: no binding (tested: 50 nM) (ENTPD8 of H520 cells).

B7: ANTI-HUMAN ENTPD2 MAB1 (antibody, human IgG1, kappa)
heavy: not shown
light: DIQLTQSPSSLSASVGDRVTITCSASSSVSYIHWFQQKPGKAPKLLIYSTSNLASGVPSRFSGSGSGTFFTLTISSLQPEDFATYFCHQWSSYPWTFGQGTKVEIKRTVAAPSVFIFPPSDEQLKSGTASVVCLLNNFYPREAKVQWKVDNALQSGNSQESVTEQDSKDSTYSLSSTLTLSKADYEKHKVYACEVTHQGLSSPVTKSFNRGEC
notes: humanized from mAb17; human IgG1, kappa; also called anti-ENTPD2 mAb1
For B7, the binding result [1] was “no binding (tested: 50 nM)”, the EC50 [2] was 0.9 nM and the binding result (ENTPD3 of H520 cells) was “no binding (tested: 50 nM)”. B7: no binding (tested: 50 nM) (ENTPD8 of H520 cells).

B8: ANTI-HUMAN ENTPD2 MAB8 (antibody, human IgG1, lambda, V domains shown)
VH: QVQLQQSGPGLVKPSQTLSLTCAISGDSVSSSSAAWNWIRQSPSRGLEWLGRIYYRSKWYNDYAVSVKSRITINPDTSKNQFSLQLNSVTPEDTAVYYCARGSYVTSSYEGFDYWGQGTLVTVSS
VL: SYELTQPLSVSVALGQTARITCSGDNLPEKYAYWYQQKPGQAPVLVIYDDNKRPSGIPERFSGSNSGNTATLTISRAQAGDEADYYCQSYGKWGWTWVFGGGTKLTVLG
notes: also called Anti-ENTPD2 mAb8
For B8, the EC50 [2] was 0.3 nM, the binding result (ENTPD3 of H520 cells) was “no binding (tested: 50 nM)” and the binding result (ENTPD8 of H520 cells) was “no binding (tested: 50 nM)”.

B9: ANTI-HUMAN ENTPD2 MAB9 (antibody, human IgG1, lambda, V domains shown)
VH: QVQLVQSGAEVKKPGSSVKVSCKASGGTFDSYAVSWVRQAPGQGLEWMGRIVPWLGHTQYAQKFQGRVTITADESTSTAYMELSSLRSEDTAVYYCARESPGYRYSFDVWDQGTLVTVSS
VL: SYELTQPLSVSVALGQTARITCSGDAIGEKYVYWYQQKPGQAPVLVIYDDNNRPSGIPERFSGSNSGNTATLTISRAQAGDEADYYCASYDLQQARWVFGGGTKLTVLG
notes: also called Anti-ENTPD2 mAb9
B9 was tested, and the binding result [1] was “no binding (tested: 50 nM)”, the EC50 [2] was 0.5 nM and the binding result (ENTPD3 of H520 cells) was “no binding (tested: 50 nM)”. B9: no binding (tested: 50 nM) (ENTPD8 of H520 cells).

B10: ANTI-HUMAN ENTPD2 MAB10 (antibody, human IgG1, lambda, V domains shown)
VH: QVQLVQSGAEVKKPGSSVKVSCKASGGTFDSYAVSWVRQAPGQGLEWMGRIVPWLGFTRYAQKFQGRVTITADESTSTAYMELSSLRSEDTAVYYCARESPGYRYSFDVWDQGTLVTVSS
VL: SYELTQPLSVSVALGQTARITCSGDAIGEKYVYWYQQKPGQAPVLVIYDDNNRPSGIPERFSGSNSGNTATLTISRAQAGDEADYYCASYDLQQARWVFGGGTKLTVLG
notes: also called Anti-ENTPD2 mAb10
In the case of B10, the binding result [1] is reported as “no binding (tested: 50 nM)”, the EC50 [2] is reported as 0.6 nM and the binding result (ENTPD3 of H520 cells) is reported as “no binding (tested: 50 nM)”. B10: no binding (tested: 50 nM) (ENTPD8 of H520 cells).
